Source: patent publication US12662541B2, “Antibody-drug conjugates against the receptor tyrosine kinase EphA5” (Rutgers, The State University of New Jersey, priority 2021, dated 2026)

Key:
[1] = biological target: T1, EphA5 antigen (Homo sapiens, UniProt P54756); assay: ka (1/Ms)
T1 construct: purchased R and D systems 3036-A5
Method: (§1) Table printed on a drawing sheet, FIG. 19
(§2) Head of the field: ka (1/Ms)
(§3) The patent's description of the figure: FIG. 19 is a table illustrating the Multi-cycle kinetic parameters of chimeric (VH0/VK0) and humanized variants (tested as purified proteins) binding to EphA5 antigen as determined using the Biacore T200. The relative KD was calculated by dividing the KD of the humanized variant by that of the VH0VK0 (first row) assayed in the same experiment. […]
(§4) Where the first naming reader finds the target: description_of_the_figure: humanized variants (tested as purified proteins) binding to EphA5 antigen as determined using the Biacore T200

[2] = biological target: T1, EphA5 antigen; assay: KD (M)
Method: as §1
(§5) Head of the field: KD (M)
as §3, §4

[3] = biological target: T1, EphA5 antigen; assay: kd (1/s)
Method: as §1
(§6) Head of the field: kd (1/s)
as §3, §4

[4] = biological target: T2, rhEphA5 antigen (Homo sapiens, UniProt P54756); assay: KD (M)
T2 construct: purchased R and D systems 3036-A5
Method: (§7) Table printed on a drawing sheet, FIG. 13
as §5
(§8) The patent's description of the figure: FIG. 13 is a table illustrating the single cycle kinetic parameters of chimeric (VH0/VK0) and humanized 11C12 variants (tested as cell culture supernatants) binding to rhEphA5 antigen as determined using the Biacore T200. The relative KD was calculated by dividing the KD of the humanized variant by that of the VH0/VK0 (top row) assayed in the same experiment. The variants marked with ‘*’ have KD values that are within two-fold of, or are better than, the chimeric antibody. The chimeric and selected variants marked in ‘#’ were identified as the main leads for purification. […]
(§9) Where the first naming reader finds the target: description_of_the_figure: humanized 11C12 variants (tested as cell culture supernatants) binding to rhEphA5 antigen as determined using the Biacore T200

[5] = biological target: T2, rhEphA5 antigen; assay: ka (1/Ms)
Method: as §7, §2, §8, §9

[6] = biological target: T2, rhEphA5 antigen; assay: Multi-cycle kinetic analysis (Biacore T200) of purified antibodies; format: binding
Method: In order to assess the binding of the six lead humanized variants to rhEphA5 antigen, multi-cycle kinetic analysis (FIG. 68) was performed on purified material. Kinetic experiments were performed at 25° C. on a Biacore T200 running Biacore T200 Control software V2.0.1 and Evaluation software V3.0 (GE Healthcare, Uppsala, Sweden).
HBS-P+ (GE Healthcare, Uppsala, Sweden), supplemented with 1% BSA w/v (Sigma, Dorset, UK) was used as running buffer as well as for ligand and analyte dilutions. Purified lead antibodies were diluted to 0.5 μg/mL in running buffer and at the start of each cycle, loaded onto Fc2, Fc3 and Fc4 of an anti-human IgG CMS sensor chip (GE Healthcare, Little Chalfont, UK). Antibodies were captured at a flow rate of 10 μl/min to give an immobilization level (RL) of 50 RU. The surface was then allowed to stabilize.
Multi-cycle kinetic data was obtained using recombinant EphA5 as the analytes injected at a flow rate of 30 μl/min to minimize any potential mass transfer effects. A five point, three-fold dilution range from 1.11 nM to 270 nM of EphA5 was prepared in running buffer. For each concentration, the association phases were monitored for 210 seconds and the dissociation phase was measured for 900 seconds. Regeneration of the sensor chip surface was conducted between cycles using two injections of 3 M MgCl2. […]
Target sequence in this assay (P54756 25-573 limits assumed): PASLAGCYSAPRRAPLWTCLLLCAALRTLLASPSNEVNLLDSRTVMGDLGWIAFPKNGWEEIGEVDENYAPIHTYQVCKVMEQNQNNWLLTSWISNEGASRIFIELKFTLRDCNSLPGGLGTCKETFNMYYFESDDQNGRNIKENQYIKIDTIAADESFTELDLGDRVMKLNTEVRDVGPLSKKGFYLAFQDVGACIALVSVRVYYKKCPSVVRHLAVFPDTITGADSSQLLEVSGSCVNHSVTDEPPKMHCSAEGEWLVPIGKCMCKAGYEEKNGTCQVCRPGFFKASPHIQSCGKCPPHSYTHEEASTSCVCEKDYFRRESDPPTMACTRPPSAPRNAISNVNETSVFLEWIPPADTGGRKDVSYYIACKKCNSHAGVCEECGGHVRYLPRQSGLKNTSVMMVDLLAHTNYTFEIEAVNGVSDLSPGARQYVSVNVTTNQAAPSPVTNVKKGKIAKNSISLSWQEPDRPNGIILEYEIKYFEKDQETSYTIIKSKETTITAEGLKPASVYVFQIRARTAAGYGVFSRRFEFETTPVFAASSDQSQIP

[7] = Thermal ramp stability (UNcle biostability platform, Sypro Orange and SLS); format: physicochemical
From the text: Thermal ramp stability experiments (Tm and Tagg) are well established methods for ranking proteins and formulations for stability. A protein's denaturation profile provides information about its thermal stability and represents a structural ‘fingerprint’ for assessing structural and formulation buffer modifications. A widely used measure of the thermal structural stability of a protein is the temperature at which it unfolds from the native state to a denatured state. For many proteins, this unfolding process occurs over a narrow temperature range and the mid-point of this transition is termed ‘melting temperature’ or ‘Tm’. To determine the melting temperature of a protein, UNcle measures the fluorescence of Sypro Orange (which binds to exposed hydrophobic regions of proteins) as the protein undergoes conformational changes.
Samples for each variant were formulated in PBS and Sypro Orange at a final concentration of 1 mg/mL. […] Samples were subjected to a thermal ramp from 25-95° C., with a ramp rate of 0.3° C./minute and excitation at 473 nm. Full emission spectra were collected from 250-720 nm, and the area under the curve between 510-680 nm was used to calculate the inflection points of the transition curves (Tonset and Tm). Monitoring of static light scattering (SLS) at 473 nm allowed the detection of protein aggregation, and Tagg (onset of aggregation) was calculated from the resulting SLS profiles. Thermal stability values determined lie in a broad range from 57.9 to 69.6° C. (Tm1), 55.1 to 65.2° C. (Tonset) and 65.6 to 70.2° C. (Tagg) with the humanized leads generally showing improved profiles when compared to the chimeric antibody. […] All humanized antibodies appear to have a higher Tm1, Tonset and Tagg compared to the chimeric antibody.

[8] = biological target: T2, rhEphA5 antigen; assay: kd (1/s)
Method: as §7, §6, §8, §9

[9] = biological target: T3, H460 cell line stably expressing EphA5 (Homo sapiens, UniProt P54756); assay: Flow cytometry cell binding, H460 cells; format: cell-based; details: from 10 μg/ml, four-fold seven point dilution
T3 construct: endogenous in cells; host or cells: H460 human lung carcinoma cells (provided by Rutgers)
Method: (§10) A H460 cell line stably expressing EphA5 (provided by Rutgers) was used, alongside H226 cells as a negative control, to test for antibody binding in a flow cytometry assay. The cell lines were first assessed for target expression using 10 μg/ml of the murine 11C12 provided by Rutgers) and MolgG1 non-binging control (Biolegend, California, US). Goat anti-mouse Alexa Fluor 647 (Thermo Fisher, Loughborough, UK) was used for antibody detection.
(§11) For cell binding assays, both cell lines were resuspended in FACS buffer (PBS+1% BSA+0.1% sodium azide) and seeded in 96 well U bottom plates at 1×105 (100 μl) cells per well. The chimeric and six purified humanized variants were tested in the assay alongside the 11C12 murine positive control, MolgG1 and HulgG1 non-binding controls. Samples were prepared at a starting concentration of 10 μg/ml in FACS buffer and underwent a four-fold seven point serial dilution for testing with H460 cells and a three-fold three point serial dilution for the H226 cells. […] Median fluorescence intensity (MFI) was measured using an Attune N×T Flow Cytometer (Thermo Fisher, Loughborough, UK) and 10,000 gated events were acquired per sample. For data analysis, live cell populations were gated based on the forward and side scatter dot plot allowing the Alexa Fluor 647 MFI values to be measured in the RL1 channel.

[10] = system: H226 cells (EphA5−); assay: Flow cytometry cell binding, H226 negative control cells; format: cell-based, human; details: from 10 μg/ml, three-fold three point dilution
Method: as §10, §11

T3 sequence (P54756 25-1037): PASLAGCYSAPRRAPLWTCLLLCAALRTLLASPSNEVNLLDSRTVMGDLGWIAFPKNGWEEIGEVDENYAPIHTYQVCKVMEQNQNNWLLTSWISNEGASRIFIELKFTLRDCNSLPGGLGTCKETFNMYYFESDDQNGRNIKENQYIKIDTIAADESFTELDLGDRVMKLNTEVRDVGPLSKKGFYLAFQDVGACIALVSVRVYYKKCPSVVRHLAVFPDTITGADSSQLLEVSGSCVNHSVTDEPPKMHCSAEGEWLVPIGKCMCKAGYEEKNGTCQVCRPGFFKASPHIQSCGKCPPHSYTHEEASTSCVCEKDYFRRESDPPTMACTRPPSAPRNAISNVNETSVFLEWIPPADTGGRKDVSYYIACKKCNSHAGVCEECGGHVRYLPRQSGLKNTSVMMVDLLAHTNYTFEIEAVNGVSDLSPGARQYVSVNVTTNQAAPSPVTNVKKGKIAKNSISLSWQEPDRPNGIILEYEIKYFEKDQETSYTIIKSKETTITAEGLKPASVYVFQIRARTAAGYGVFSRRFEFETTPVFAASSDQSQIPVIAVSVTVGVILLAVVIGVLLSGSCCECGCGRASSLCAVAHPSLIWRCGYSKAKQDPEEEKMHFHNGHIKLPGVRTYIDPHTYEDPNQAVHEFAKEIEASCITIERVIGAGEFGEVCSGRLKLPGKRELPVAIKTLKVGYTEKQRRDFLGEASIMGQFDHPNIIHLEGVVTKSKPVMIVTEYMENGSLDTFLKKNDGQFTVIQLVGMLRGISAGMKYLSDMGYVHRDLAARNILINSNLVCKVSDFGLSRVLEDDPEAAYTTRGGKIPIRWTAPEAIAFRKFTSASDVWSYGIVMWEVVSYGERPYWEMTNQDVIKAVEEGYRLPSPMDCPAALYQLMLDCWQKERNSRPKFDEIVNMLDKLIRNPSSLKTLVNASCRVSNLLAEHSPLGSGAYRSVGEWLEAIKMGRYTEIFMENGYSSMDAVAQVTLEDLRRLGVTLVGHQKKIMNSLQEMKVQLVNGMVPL

| Molecule | ka [1] | kd [3] | ka [5] | kd [8] | other results |
| --- | --- | --- | --- | --- | --- |
| VH3/VK4: humanized anti-EphA5 antibody, VH SEQ ID NO:4, VL SEQ ID NO:12; lead variant (antibody, V domains shown) VH: EVQLVESGGGLVQPGGSLKLSCAASGFTFSTFGIHWVRQAPGKGLEWVAYISGASTTIYYADTVKGRFTISRDNSKNTLYLQMNSLRSEDTAMYYCARYGTSFPYGLDYWGQGTLVTVSS VL: DIVMTQSPDSLAVSLGERATINCKSSQSVDYDGDSYMNWYQQKPGKAPKLLIYGASNLESGIPDRFSGSGSGTDFTLTISRLEPEDAASYYCQQSNEDPFTFGQGTKLEIK | 1.31e+06 M⁻¹ s⁻¹ | 0.00142 s⁻¹ |  |  | Kd [2]: 1.08 nM; Kd [4]: 0.956 nM |
| VH0/VK0: chimeric antibody with murine 11C12 variable regions (SEQ ID NO:1, 8) and human IgG1/kappa constant regions (antibody, V domains shown, human IgG1/kappa constant regions) VH: EVTLKESGGGLVQPGGSRKLSCAASGFTFSTFGIHWVRQAPEKGLEWVAYISGASTTIYYADTVKGRFTISRDNPKNTLFLQMTSLRSEDTAMYYCARYGTSFPYGLDYWGQGTSVTVSS VL: DIVMTQSPGSLAVSLGQRATISCKASQSVDYDGDSYMNWYQQKPGQPPKLLIYGASNLESGIPARFSGSGSGTDFTLNIHPVEEEDAASYYCQQSNEDPFTFGSGTKLEIK |  |  | 1.15e-06 M⁻¹ s⁻¹ | 0.00153 s⁻¹ | RMAX ([6]; 1:1 model fit): 47.8; kd ([6]; 1:1 model, binding to EphA5): 0.0015 s⁻¹; Average Tm2 (° C.) [7]: 65.83 °C; Average Tonset (° C.) [7]: 55.1 °C; transitions detected in thermal unfolding [7]: two transitions (Tm1 and Tm2); Average Tm1 (° C.) ([7]; 1 mg/mL in PBS, ramp 25-95° C.): 57.9 °C; Average Tagg 473 (° C.) ([7]; SLS at 473 nm): 65.6 °C; Tm2 (° C.) ([7]; single replicate): 65.83 °C |
| VH4/VK4: humanized anti-EphA5 antibody, VH SEQ ID NO:5, VL SEQ ID NO:12; lead variant (antibody, V domains shown) VH: EVQLVESGGGLVQPGGSLKLSCAASGFTFSTFGIHWVRQAPGKGLEWVAYISGASTTIYYADTVKGRFTISRDNSKNTLYLQMNSLRAEDTAVYYCARYGTSFPYGLDYWGQGTLVTVSS VL: DIVMTQSPDSLAVSLGERATINCKSSQSVDYDGDSYMNWYQQKPGKAPKLLIYGASNLESGIPDRFSGSGSGTDFTLTISRLEPEDAASYYCQQSNEDPFTFGQGTKLEIK | 1.27e+06 M⁻¹ s⁻¹ | 0.00132 s⁻¹ |  | 0.0014 s⁻¹ |  |
| VH5/VK2: humanized anti-EphA5 antibody, VH SEQ ID NO:6, VL SEQ ID NO:10; lead variant (antibody, V domains shown) VH: EVQLVESGGGLVQPGGSLKLSCAASGFTFSTFGIHWVRQAPGKGLEWVAYISGASTTIYYADSVKGRFTISRDNSKNTLYLQMNSLRAEDTAVYYCARYGTSFPYGLDYWGQGTLVTVSS VL: DIVMTQSPDSLAVSLGERATINCKASQSVDYDGDSYMNWYQQKPGKAPKLLIYGASNLESGIPDRFSGSGSGTDFTLTISRLEPEDAASYYCQQSNEDPFTFGQGTKLEIK | 1.34e+06 M⁻¹ s⁻¹ | 0.00125 s⁻¹ | 1.38e-06 M⁻¹ s⁻¹ | 0.00123 s⁻¹ |  |
| VH5/VK4: humanized anti-EphA5 antibody, VH SEQ ID NO:6, VL SEQ ID NO:12; lead variant (antibody, V domains shown) VH: EVQLVESGGGLVQPGGSLKLSCAASGFTFSTFGIHWVRQAPGKGLEWVAYISGASTTIYYADSVKGRFTISRDNSKNTLYLQMNSLRAEDTAVYYCARYGTSFPYGLDYWGQGTLVTVSS VL: DIVMTQSPDSLAVSLGERATINCKSSQSVDYDGDSYMNWYQQKPGKAPKLLIYGASNLESGIPDRFSGSGSGTDFTLTISRLEPEDAASYYCQQSNEDPFTFGQGTKLEIK | 1.23e+06 M⁻¹ s⁻¹ | 0.00128 s⁻¹ | 1.35e-06 M⁻¹ s⁻¹ | 0.00141 s⁻¹ | Tagg ranking among the leads (SLS profiles) [7]: highest Tagg values |
| 11C12: anti-human EphA5 monoclonal murine antibody, parental and positive control (antibody, V domains shown) VH: EVTLKESGGGLVQPGGSRKLSCAASGFTFSTFGIHWVRQAPEKGLEWVAYISGASTTIYYADTVKGRFTISRDNPKNTLFLQMTSLRSEDTAMYYCARYGTSFPYGLDYWGQGTSVTVSS VL: DIVMTQSPGSLAVSLGQRATISCKASQSVDYDGDSYMNWYQQKPGQPPKLLIYGASNLESGIPARFSGSGSGTDFTLNIHPVEEEDAASYYCQQSNEDPFTFGSGTKLEIK |  |  |  |  | binding to H460 (EphA5+) cells, MFI dose response [9]: bound to the positive cell line in a concentration dependent manner; binding to H226 (EphA5 negative) cells [10]: no binding |
